Data taken from a protein production outcome set (Wang et al. 2014).

Experiment: label from the status in PepcDB records

| Sequence | protein production |
| --- | --- |
| MESLPVLGVFFMVKTANVAVMPLFPRSQYRIIGQIGQGQFGRVYCAIHRTTGKMYALKDLEHRVFPTNKFLRELSYLLTLRHPNIVACHGLEYHPGGRYLVMDYCEGGTLRDIIDGDGDLCLAGKIDLLRQILLGLAQAHQHDIVHCDLKPENILLIPRAEGWQVKVSDFGIARLTAKTGNPNFSKGYTGSPAYMAPERFYGKFSVASDIYAVGILLYELIVGDRPFSGFPKALQAAHLNVRLTLPPEFPPLLAPIVQRALEKLPQRRFPNATAMASDLATVQKQILEQDPPRGNGYLYHHLAPAPLAFTATVKHSTPLLFPISHLTGAGLWLYLGNGAELYLWEYGDGNVEHHPLPRWALGLPGTIANLEVNQDQISLLIQGGEPGEWQFYQWRETLLGALSLPKPRINLRAERLLANLSPGGKTLAVVVGDRDSEKGHFQLWRTDHSLPVAAAVVIRWPDQLLTLDQNHGLLVQSQSTASYCHTIFFLFNRRGSLFPAFRLSFLVFQLVVNRYSRNHLFGLADNAPYTGILIRLQPLKVNRIALTIQPQFIEPFPWGYLLADRHGEVALLDYEGFLFGNFSLGETITAIAPMGRYLCLFATWQGNGGTLRLLDLGPQVENIIRQRQEKR | failed |
| MESPGGSAPLLGLELCAAARDSAAMAGPGAPCDPCAPAAVWKRHIVRQLRHRDRTQKALFLELVPAYNHLLEKAELLAKFSEKLKSEPKDAISTRHEDWREEVSGTGPDQVSSPASLRVKWQQEKKGLQLVCGEMAYQVVKKSAALDTLQSQLEERQDRLEALQACVVQLQEARAQQSRQLEERQAENAAQREAYETLLQQAVHQEAALRRLQEEARDLLEQLVQRKARAAAERNLRNERRERANQALVSQELKKAAKRTVSISEIPNTLEDGTKEETVALAPAALPEFSESETCEKWKRPFRSASATSLTLSRCVDVVKGLLDFKKRRGHSVGGAPEQRYQSIPVCVSAQIPSQAQDVLDAHLSEVNAVCFGPNSSLLATGGADRLIHLWNVVGGRLEANQTLEGAGGSITSVDFDPSGSQVLAATYNQAAQLWKVGETQSKETLSGHKDKVTAAKFKLTRHQAVTGSRDRTVKEWDLGRAYCSRTINVLSYCNDVVCGDHIIISGHNDQKIRFWDSRGPHCIQVIPVQGRVTSLHLSYDQLHLLSCSRDNTLKVIDLRISNIRQVFRADGFKCSSDWTKAVFSPDRSYALAGSSNGDLYIWDVNTGKLETSLQGPHCTAVNAVAWCFSGNHVVSVDQGRKVVLWH | failed |
| MESSAINIAIVVVYLLAMLAFGWWGKSRTKNNSDFLVAGRRLGPFLYTGTMAAVVLGGASTVGGVGLGYKFGISGMWLVVAIGSGVLLLSLLFAGTIQKLKIYTVSQMLTLRYGSTATQTSGIVMLAYTLMLCATSTGAYATIFVVLFGWERWLAIAIGGAIVLVYSTIGGMWSITLADQVQFVIKTVGIFFLMLPFALNAAGGLDGIRARVDESFFDIGGIGLQTIITYFVVYTLGLLIGQDIWQRVFTAKTPTVARWGGATAGVYCILYGFAGALIGMAASVALSGVEIAAKDDVYAEVATRLLPIGIGGLVLAAAVAAMMSTASGALIAAATVARADVMPFVASWFGKKVDTSDSDNPEHDVKANRYWVLGLGIVAIIIAISTKDVVAALTIAYDILVGGLLVAIIGGLVWKRGTGIAAAWSMAAGSVITLGTMIILEINAEVPLDGIYANEPIYFGLIASAVVYVVVSLLSKPTDPAVMKAWTDRVAGTRVAEEELTTPAS | failed |
| MESTKSYDIPILRNVSRSFSVHYRDYLQRCGIFVPKEGNSSGPDAYVVFHNGQTRYVVGFSFKFYHKSEFSKRNIEEEAKKFFKGVVSVLNDESFSSVQLRFQFVMVVCTSYGRSVVFSSEEQNIVEDASYLVTEHSSGSTLNESSRSCLQLVIVSQRNLEMYLGRDNVETLRKIGEASREEFSKDFSVWCETVFESMSNEYVSPLEQSNVTLRVARNIRPRTNEENRMQIEELQTAMKVERSVAASSSLSSSFDWNTFLREYCGLSEEDVAYCLPKVEDIDMDELPAVTKEILRDLGIDKPALRLKIRSSIRSYLANER | not failed |
| MESTLSASNMQDPSSSPLEKCLGSANGNGDLDSEEGSSLEETGFNWGEYLEETGASAAPHTSFKHVEISIQSNFQPGMKLEVANKNNPDTYWVATIITTCGQLLLLRYCGYGEDRRADFWCDVVIADLHPVGWCTQNNKVLMPPDAIKEKYTDWTEFLIRDLTGSRTAPANLLEGPLRGKGPIDLITVGSLIELQDSQNPFQYWIVSVIENVGGRLRLRYVGLEDTESYDQWLFYLDYRLRPVGWCQENKYRMDPPSEIYPLKMASEWKCTLEKSLIDAAKFPLPMEVFKDHADLRSHFFTVGMKLETVNMCEPFYISPASVTKVFNNHFFQVTIDDLRPEPSKLSMLCHADSLGILPVQWCLKNGVSLTPPKGYSGQDFDWADYHKQHGAQEAPPFCFRNTSFSRGFTKNMKLEAVNPRNPGELCVASVVSVKGRLMWLHLEGLQTPVPEVIVDVESMDIFPVGWCEANSYPLTAPHKTVSQKKRKIAVVQPEKQLPPTVPVKKIPHDLCLFPHLDTTGTVNGKYCCPQLFINHRCFSGPYLNKGRIAELPQSVGPGKCVLVLKEVLSMIINAAYKPGRVLRELQLVEDPHWNFQEETLKAKYRGKTYRAVVKIVRTSDQVANFCRRVCAKLECCPNLFSPVLISENCPENCSIHTKTKYTYYYGKRKKISKPPIGESNPDSGHPKPARRRKRRKSIFVQKKRRSSAVDFTAGSGEESEEEDADAMDDDTASEETGSELRDDQTDTSSAEVPSARPRRAVTLRSGSEPVRRPPPERTRRGRGAPAASSAEEGEKCPPTKPEGTEDTKQEEEERLVLESNPLEWTVTDVVRFIKLTDCAPLAKIFQEQDIDGQALLLLTLPTVQECMELKLGPAIKLCHQIERVKVAFYAQYAN | failed |
| MESWKVNLISVWFGCFFTGLAISQILPFLPLYVSQLGVTSHEALSMWSGLTFSVTFLVSAIVSPMWGSLADRKGRKLMLLRASLGMAIAILLQAFATNVWQLFILRAIMGLTSGYIPNAMALVASQVPRERSGWALSTLSTAQISGVIGGPLLGGFLADHVGLRMVFFITAILLTISFLVTLFLIKEGVRPQVSKSERLTGKQVFASLPYPGLVISLFFTTLVIQLCNGSIGPILALFIKSMAPDSNNIAFLAGMIAAVPGVSALISAPRLGKLGDRIGTSRILLATLCCAVVMFFAMSFVTTPLQLGTLRFLLGFADGAMLPAVQTLLLKYSSDSVTGRIFGYNQSFMYLGNVAGPLIGASVSAMAGFRWVFIATAIIVFINLWQLAWMLRQTRRANA | not failed |
| METESEQNSNSTNGSSSSGGSSRPQIAQMSLYERQAVQALQALQRQPNAAQYFHQFMLQQQLSNAQLHSLAAVQQATIAASRQASSPNTSTTQQQTTTTQASINLATTSAAQLISRSQSVSSPSATTLTQSVLLGNTTSPPLNQSQAQMYLRPQLGNLLQVNRTLGRNVPLASQLILMPNGAVAAVQQEVPSAQSPGVHADADQVQNLAVRNQQASAQGPQMQGSTQKAIPPGASPVSSLSQASSQALAVAQASSGATNQSLNLSQAGGGSGNSIPGSMGPGGGGQAHGGLGQLPSSGMGGGSCPRKGTGVVQPLPAAQTVTVSQGSQTEAESAAAKKAEADGSGQQNVGMNLTRTATPAPSQTLISSATYTQIQPHSLIQQQQQIHLQQKQVVIQQQIAIHHQQQFQHRQSQLLHTATHLQLAQQQQQQQQQQQQQQQPQATTLTAPQPPQVPPTQQVPPSQSQQQAQTLVVQPMLQSSPLSLPPDAAPKPPIPIQSKPPVAPIKPPQLGAAKMSAAQQPPPHIPVQVVGTRQPGTAQAQALGLAQLAAAVPTSRGMPGTVQSGQAHLASSPPSSQAPGALQECPPTLAPGMTLAPVQGTAHVVKGGATTSSPVVAQVPAAFYMQSVHLPGKPQTLAVKRKADSEEERDDVSTLGSMLPAKASPVAESPKVMDEKSSLGEKAESVANVNANTPSSELVALTPAPSVPPPTLAMVSRQMGDSKPPQAIVKPQILTHIIEGFVIQEGAEPFPVGCSQLLKESEKPLQTGLPTGLTENQSGGPLGVDSPSAELDKKANLLKCEYCGKYAPAEQFRGSKRFCSMTCAKRYNVSCSHQFRLKRKKMKEFQEANYARVRRRGPRRSSSDIARAKIQGKCHRGQEDSSRGSDNSSYDEALSPTSPGPLSVRAGHGERDLGNPNTAPPTPELHGINPVFLSSNPSRWSVEEVYEFIASLQGCQEIAEEFRSQEIDGQALLLLKEEHLMSAMNIKLGPALKICAKINVLKET | failed |
| METISKEFKSKVSLFWEAFNKNDFESAKTQCNQMKKSFSDEANPHYLLGIIYFEEKRFDKSIIELKLALKKDSERKLGGYIYYVIGLNYSKNTFSNMENLNSIYDIELARNAFESALTYENFNESNITELSQIYRNKFKLIQLFQKGLKKFPTKTSFYIKLSAIYKKNGNISERESLLLDAKENIKSFHILFELGELYLEKSQYKCSREHFYLAEKLREGSGLEFAVQVMIGNTHVNEGNPNLANEYYINAFHKEKNSCNFWFGLFGILASSAETSFADLKNILEEMEVTSQLTIEEWYGEMPLYYGSNYFSFDFPIDEKHLINRLNLFKKQQRDTDILGKIELIKASLYEFSSEDTKYIKCLKSAINYFSQHSYDFIFNKLAARYDYLLSHLQEEGKSVNTLINEIVDYLEDDYSFRKEYIEYLPTIVTILFEEKKHKKIIEIKNIFTEKQIDKADIWFHVGYAFNELGRPKESKYAYECNIKINGECTSTHNNLALLLENEGKNSDAVAMFQKALMINVDDEKLQSNLQNALDKQKAKSLLTYKNEAIDKSFVGAVGLLKSETFFSMETLLNFIDRSKKENSFNDGILSIQDEMFPDLLRTNLVKSLELKNDWLIKNYIALTEEIDEYGIPYYQVNPYLEPEIVKLKRMTVESELPKEWTEGIGNITIFKLDELDYFSIKHKISKINKKFKPLVMRDFNELIFNHLVGNRKAVVVLSGSFVELLLTYYCEKKRIKAVEYTCKDSAKPKKKKLYDCVLFDLISFIEEKRIFGNDFFLLSNLSRVYRNFIHPGVELKNSLDKSKSDLCFISSLEILKKII | failed |
| METLHPFSHLPISDHRFVVQEMVSLHSSSSGSWTKEENKMFERALAIYAEDSPDRWFKVASMIPGKTVFDVMKQYSKLEEDVFDIEAGRVPIPGYPAASSPLGFDTDMCRKRPSGARGSDQDRKKGVPWTEEEHRRFLLGLLKYGKGDWRNISRNFVVSKTPTQVASHAQKYYQRQLSGAKDKRRPSIHDITTGNLLNANLNRSFSDHRDILPDLGFIDKDDTEEGVIFMGQNLSSENLFSPSPTSFEAAINFAGENVFSAGA | failed |
| METLKKNWTKFILSFIMLVLAIICVYTLSTYKSSEKNTGFLKMGGGFNKSFNSSSRKLNGQPNMKGAPAQHPSNSNANSKSAPPNNFNHNVSKPQRMMGGGEFNSSSKYSSEVLIYSLGFFAIVICAYLAIVKKKIKISTENRGFILAAFLVIGFLFRIIVGLLITGYVTDIGLYKQWALTAAKNLAAVYTNGSVDYPPVYLYVLSIIGKIASSSFMSNYSTLLIKLPSIIADIFSAYFVYRLSIKRFSYETSFALTLFYLFNPAILINSTLWGQADSFFTLLVILAVYFISEDKIVPSSIFFALSVLMKPQGIIFLPLVLFWYIKNKNLKSIFKSIASGFITTIIVLAPFSISKGNITWIFDLYTREVSEYPYASNNAFNFYSLIGANRVKDSNTMFIFSYHTWGMLFIVLITLISGFFYLKSKNKYASTLAALIQVVGVFNFSVGMHERYMFTAVLASILAYIYFKDKRLLLISLLLSFINYANMHTILFNRLNMNVNSSSSMLIVFISLLNITTFVYLIKVCFDLCLKKDIKVTEDIQNTL | failed |
| METLSNSILTVQIAEHGAELQSIKKDGKEYLWQGDAKFWGRRSPVLFPIVGRVWNNKYRHAGNTYEIGQHGFARDMDFKLTYKEDKGAVYWLESTPDTLGKFPFPFRLLVGYLLEENKITVKWRVENLGAMDMYFQIGAHPAFYFPEFDAATKDRGFFVFDRKSDLEYIMPTEKGCVSPERHVLKLNKEGLMPIDIHTFDCDTYIFDNKQLKKITLLDKKKKPHISLEFNSPLVALWSPTKTHPDCPFVCIEPWYGRCDSVGYSGELKDREWIQKLEPKETFDVEYKIIIE | failed |
| METLSVIHTVANRLRELNPDMDIHISSTDAKVYIPTGQQVTVLIHYCGSVFAEPENTDATVQKQLIRISATVIVPQISDAINALDRLRRSLGGIELPDCDRPLWLESEKYIGDAANFCRYALDMTASTLFIAEQESKDSPLLTIVNYEEIQ | not failed |
